# Measured values reported in US5130300A, “Method for enhancing growth of mammary parenchyma” (Monsanto Company, priority 1987, dated 1992).
# B1: BST: N-methionyl bovine somatotropin prepared by expression of recombinant DNA (protein, UniProt P01246 27-217, looked up)
# Somatotropin: AFPAMSLSGLFANAVLRAQHLHQLAADTFKEFERTYIPEGQRYSIQNTQVAFCFSETIPAPTGKNEAQQKSDLELLRISLLLIQSWLGPLQFLSRVFTNSLVFGTSDRVYEKLKDLEEGILALMRELEDGTPRAGQILKQTYDKFDTNMRSDDALLKNYGLLSCFRKDLHKTETYLRVMKCRRFGEASCAF
# modifications: N-terminal Met
# notes: N-methionyl bovine somatotropin prepared by expression of recombinant DNA
# B2: Ovine Prolactin: ovine prolactin from Sigma Chemical Co. (Lot No. 26F-0076), comparative example (protein, UniProt P01240 31-229, looked up)
# Prolactin: TPVCPNGPGNCQVSLRDLFDRAVMVSHYIHNLSSEMFNEFDKRYAQGKGFITMALNSCHTSSLPTPEDKEQAQQTHHEVLMSLILGLLRSWNDPLYHLVTEVRGMKGVPDAILSRAIEIEEENKRLLEGMEMIFGQVIPGAKETEPYPVWSGLPSLQTKDEDARHSAFYNLLHCLRRDSSKIDTYLKLLNCRIIYNNNC
# Legend:
# [1] = system: Quarter-Udders in Pregnant Beef Cows; assay: Intramammary infusion of BST, quarter-udder weights and DNA (Examples 40-41); format: in vivo, cross-bred beef cows; conditions: for DNA, % Increase, (A-B)/B / DNA, Mean Increase (A-B) / Dry Fat-Free Weight, % Increase, (A-B)/B / Dry Fat-Free Weight, Mean Increase (A-B) / Dry Weight, % Increase, (A-B)/B / Dry Weight, Mean Increase (A-B) / Wet Weight, % Increase, (A-B)/B / Wet Weight, Mean Increase (A-B): B = excipient only
# Method: 24 pregnant, non-lactating, cross-bred beef cows in their last 40-80 days of gestation were divided into 2 groups and tested for the effects of intramammary infusion using the procedures of Examples 3-6 except that (A) the volume of excipient in each infusion was 5 ml and (B) each treatment infusion contained a 1% zinc salt of an N-methionyl bovine somatotropin (BST) (Group 1-100 mg; Group 2-40 mg) prepared by expression of recombinant DNA and purified essentially as described in Example 1A of U.S. Patent Appln. No. 787,873 filed Oct. 16, 1985 based on European Patent Appln. No. 177,478 published Apr. 9, 1986, both incorporated here by reference. Results are in Tables 19-20.
# [2] = system: Quarter-Udders in Pregnant Holstein Heifers; assay: Intramammary infusion, milk production per udder side in first 30 days after parturition (Examples 23-24, 42-43); format: in vivo
# Method: 18 pregnant Holstein heifers within their last 40-60 days of expected calving were housed in a free-stall facility, fed a ration of alfalfa hay and pelleted concentrate and administered 10 ml of an excipient (sterile sesame oil) into each quarter-udder by intramammary infusion through the steak canal every third day for the number of treatments shown below. The heifers in Groups 1 and 3 were treated no later than their fifth day before parturition; treatments of those in Groups 2 and 4 were continued into their last five days. Treatments containing a mitogenic substance were administered to both quarter-udders on one side of each animal. Excipient only was administered to both quarter-udders on the opposite side of that animal. All infusions were carried out with a Jorgensen laboratories infusion canula of the kind used in Examples 1-2. Each teat was sprayed with 70% ethanol and wiped dry prior to treatment, and dipped with an iodine solution following treatment. These animals were milked normally each a.m. and p.m. for the first 30 days after parturition, with milk production recorded separately for each quarter-udder. […] Shown in Table 21 are the milk production results obtained with the heifers of Group 3 in Examples 23-24. On average, milk production by the half-udders that had been treated in Group 4 of Examples 23-24 slightly exceeded (2%, p<0.4) that of their control half-udders.
# [3] = system: Quarter-Udders in Pregnant Beef Cattle; assay: Intramammary infusion of ovine prolactin, quarter-udder weights and DNA (Comparative Examples); format: in vivo, cross-bred beef cows
# Method: 16 pregnant, non-lactating, cross-bred beef cows in their last 30-105 days of gestation were divided into 2 groups and tested for the effects of intramammary infusion using the procedures of Examples 25-28 except that instead of a prostaglandin, each treatment infusion contained either 2 mg (Group 1) or 10 mg (Group 2) of ovine prolactin obtained from Sigma Chemical Co., St. Louis, Mo. (Lot No. 26F-0076) in 10 ml of an emulsion of 0.9% saline containing 0.5% Tween-20 in sterile sesame oil containing 5% Arlacel A (3:2 oil: saline). Results are in Tables 22-23.
# [4] = Group 1: total of 500 milligrams BST
# [5] = Group 1: total of 500 milligrams BST (100 mg per infusion)
# [6] = Group 2: total of 200 milligrams BST
# [7] = Group 2: total of 200 milligrams BST (40 mg per infusion)
# [8] = Group 1: total of 10 milligrams (2 mg per infusion)
# [9] = Group 1: total of 10 milligrams, B = control mean
# [10] = Group 2: total dose of 50 milligrams (10 mg per infusion)
# [11] = Group 2: total dose of 50 milligrams, B = control mean
molecule,measurement,setting,value
B1,"DNA, Avg. % Increase/Animal",[1]; [4],10.5%
same,"Dry Fat-Free Weight, Avg. % Increase/Animal",[1]; [4],7.9%
same,"Dry Weight, Avg. % Increase/Animal",[1]; [4],10.7%
same,"Wet Weight, Avg. % Increase/Animal",[1]; [4],9.8%
same,"DNA, Treatment Mean",[1]; [5],2185 mg
same,"Dry Fat-Free Weight, Treatment Mean",[1]; [5],146.7 g
same,"Dry Weight, Treatment Mean",[1]; [5],207.6 g
same,"Wet Weight, Treatment Mean",[1]; [5],790.1 g
same,"DNA, % Increase, (A-B)/B",[1]; [4],6.4%
same,"DNA, Mean Increase (A-B)",[1]; [4],131 mg
same,"Dry Fat-Free Weight, % Increase, (A-B)/B",[1]; [4],3.6%
same,"Dry Fat-Free Weight, Mean Increase (A-B)",[1]; [4],5.2 g
same,"Dry Weight, % Increase, (A-B)/B",[1]; [4],8.9%
same,"Dry Weight, Mean Increase (A-B)",[1]; [4],17.0 g
same,"Wet Weight, % Increase, (A-B)/B",[1]; [4],7.3%
same,"Wet Weight, Mean Increase (A-B)",[1]; [4],53.5 g
same,"DNA, Avg. % Increase/Animal",[1]; [6],15.8%
same,"Dry Fat-Free Weight, Avg. % Increase/Animal",[1]; [6],7.8%
same,"Dry Weight, Avg. % Increase/Animal",[1]; [6],10.7%
same,"Wet Weight, Avg. % Increase/Animal",[1]; [6],13.4%
same,"DNA, Treatment Mean",[1]; [7],1371 mg
same,"Dry Fat-Free Weight, Treatment Mean",[1]; [7],49.5 g
same,"Dry Weight, Treatment Mean",[1]; [7],96.4 g
same,"Wet Weight, Treatment Mean",[1]; [7],396.9 g
same,"DNA, % Increase, (A-B)/B",[1]; [6],5.5%
same,"DNA, Mean Increase (A-B)",[1]; [6],72 mg
same,"Dry Fat-Free Weight, % Increase, (A-B)/B",[1]; [6],10.5%
same,"Dry Fat-Free Weight, Mean Increase (A-B)",[1]; [6],4.7 g
same,"Dry Weight, % Increase, (A-B)/B",[1]; [6],13.3%
same,"Dry Weight, Mean Increase (A-B)",[1]; [6],11.3 g
same,"Wet Weight, % Increase, (A-B)/B",[1]; [6],14.9%
same,"Wet Weight, Mean Increase (A-B)",[1]; [6],51.5 g
same,"Average Milk Production, Treated Side (A)","[2]; BST 50 mg per infusion every third day, no later than fifth day before parturition (Group 3 per text), first 30 days after parturition",10.9 kg/day
same,"Average Milk Production, % Increase, (A-B)/B","[2]; BST 50 mg per infusion, no later than fifth day before parturition (Group 3 per text), B = control side, excipient only",11%
same,Milk production of treated half-udders in excess of control half-udders,"[2]; Group 4: BST 50 mg per infusion, treatments continued into last five days before parturition",2%
B2,"DNA, Treatment Mean",[3]; [8],2526 mg
same,"Dry Fat-Free Weight, Treatment Mean",[3]; [8],137.8 g
same,"Dry Weight, Treatment Mean",[3]; [8],262.7 g
same,"Wet Weight, Treatment Mean",[3]; [8],895.3 g
same,"Dry Fat-Free Weight, % Increase, (A-B)/B",[3]; [9],.88%
same,"Dry Fat-Free Weight, Mean Increase (A-B)",[3]; [9],1.2 g
same,"Dry Weight, % Increase, (A-B)/B",[3]; [9],1.0%
same,"Dry Weight, Mean Increase (A-B)",[3]; [9],4.8 g
same,"Wet Weight, % Increase, (A-B)/B",[3]; [9],.6%
same,"Wet Weight, Mean Increase (A-B)",[3]; [9],5.4 g
same,"DNA, Treatment Mean",[3]; [10],3672 mg
same,"Dry Fat-Free Weight, Treatment Mean",[3]; [10],189.2 g
same,"Dry Weight, Treatment Mean",[3]; [10],343.4 g
same,"Wet Weight, Treatment Mean",[3]; [10],1487.1 g
same,"DNA, % Increase, (A-B)/B",[3]; [11],10.5%
same,"DNA, Mean Increase (A-B)",[3]; [11],350 mg
same,"Dry Fat-Free Weight, % Increase, (A-B)/B",[3]; [11],2.5%
same,"Dry Fat-Free Weight, Mean Increase (A-B)",[3]; [11],4.7 g
same,"Wet Weight, % Increase, (A-B)/B",[3]; [11],13.6%
same,"Wet Weight, Mean Increase (A-B)",[3]; [11],178.6 g
